The results in this text go back to article PMC5149402.

This assay has as its target rat GluD2 ATD tetramerised with an engineered tetrameric coiled-coil zipper based on GCN4 (rat | not stated).

On to “rat GluD2 ATD tetramerised with an engineered tetrameric coiled-coil zipper based on GCN4 (domain or fragment)”, for which the stoichiometry N (as a rule, a count of units in the complex or per binding partner) is 4.
